Article PMC6042391

T1: tau peptide V1089–24
T1 sequence (peptide, phosphoserine at Ser422; biotin (position not stated)): SSTGSIDMVDSPQLATLA


Target: T1, tau peptide V1089–24
Assay: BLI; biotinylated peptide V1089–24 (1 μg/ml) on streptavidin biosensors; 13 Fab concentrations in ForteBio's kinetics buffer; 600 s association, 600 s dissociation; steady state analysis

Kd | Binder
240 nM | Fab-dmCBTAU-22.1 (Fab, V domains shown) VH: QVQLVQSGAEVKKPGAPVKVSCETSGYRFSDYFVHWVRQAPGQGPEWIGRIRPNSGGTKYAQKFQGRVTMTRDMSMNTAYMELSGLRSDDTAVYYCVRGHCDGTTCSRAYWGQGTLVTVSS VL: DVVMTQSPLSLPVTPGEPASISCRSSQSLLHRSGHKYLHWYLQRPGQSPQVLIYLGSNRASGVPDRFSGSGSGTDFTLKISRVEAEDVGLYYCMQTLQTPWTFGQGTKVEIK
5600 nM | Fab-CBTAU-22.1 (Fab, V domains shown) VH: QVQLVQSGAEVKKPGAPVKVSCETSGYRFSDYNVHWVRQAPGQGPEWIGRISPNSGGTKYAQKFQGRVTMTRDMSMNTAYMELSGLRSDDTAVYYCVRGHCDGTTCSRAYWGQGTLVTVSS VL: DVVMTQSPLSLPVTPGEPASISCRSSQSLLHRSGHKYLHWYLQRPGQSPQVLIYLGSNRASGVPDRFSGSGSGTDFTLKISRVEAEDVGLYYCMQTLQTPWTFGQGTKVEIK
